Test results from the supplement of paper PMC9170038.

Columns and labels:
MS2 coat protein [1] = test: apparent KD of MS2 coat protein; designed switch direction (-1 OFF switch, 1 ON switch): -1; higher = weaker reporter binding; settings: Eterna round: R98
Protocol: (§1)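 RNA-MaP: designed FMN/MS2 RNA switches (84 nt design region) are transcribed on-chip within common flanks and titrated with SNAP-549-labelled MS2 coat protein (about 1-3000 nM) in 100 mM Tris pH 7.5, 80 mM KCl, 4 mM MgCl2, without or with 200 uM FMN. Median apparent KD per design; activation ratio = KD,OFF / KD,ON.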

MS2 coat protein [2] = test: apparent KD of MS2 coat protein; higher = weaker reporter binding; settings: Eterna round: R101
Protocol: as §1

Sequence | apparent KD of MS2 coat protein (MS2 coat protein [1]; input ligand: FMN 200 uM) [nM] | apparent KD of MS2 coat protein (MS2 coat protein [1]; input ligand: none) [nM] | apparent KD of MS2 coat protein (MS2 coat protein [2]; input ligand: FMN 200 uM) [nM] | apparent KD of MS2 coat protein (MS2 coat protein [2]; input ligand: none) [nM]
UCAGGUCGGGAAGGAUAUCGGCCGCAGAGAGCUCGAGAAGGUCCCGACAUGAGGAUCACCCAUGUUGAAGGAUCCUAACGUGCC [Maonan] | 35.4 | 38.3 |  | 
GCGCGCGCGUCAGGAUAUACAUGAGGAUCACCCAUGUGUGCGCGCGCGCGCGCGCGCGCGCGCGUGUAGAAGGGACGCUGUCGC [Incredible-Exclusion NG 2] | 20.6 | 14.4 |  | 
GCACUGGAUGUAGGAUAUCAGGACGAUAAGUCCUGAGAAGGACAUGAGGAUCACCCAUGUCCCAAAACCAGUGCAUAUAAUAUA [Denovo Exng1 31] | 19.8 | 14.3 |  | 
GGUCGACUUCAAGGAUAUGGACUGCAAAGCAGUCCAGAAGGUGAGGAUCACCCACCUACGGUCAGGAAACUGACCGAUCGACCA [#SharedSequence - ExNG1-4] (puzzle (switch architecture): Exclusion NG 1) |  |  | 12.3 | 10.5
GUAGCAUUGAGAGGAUAUCCAUACCGGAAACGGACAUGAGGAUCACCCAUGUGGCGAAAGCCUUGGGAGAAGGCUCUAUGCUAC [S-state NG2 01] (puzzle (switch architecture): Same State NG 2) |  |  |  | 4.34
UAUUAUUUGGAGAAGGACAUGAGGAUCACCCAUGUCGCCGGGCCCGGGAAACCGGGCCCGGCCAUGUAGGAUAUCCGGAUGGUA [#This is a good prank 4] (puzzle (switch architecture): Inverted Exclusion NG 2) |  |  | 7.61 | 7.31
UAAAUAGAUCCUAGAGGAUCACCCUAGGAUAUCACCGUCGAGGUGCCAUAAUGGCACCUCGACGGUGAGAAGGAGGUUGAUAAA [#SharedSequence - SLExNG3: 7] (puzzle (switch architecture): Small Loop Exclusion NG 3) |  |  | 19.9 | 11.4
GAGAAGAAGUUAGGAUAUUGGAUAGGGACGGAAUAAGAAGGAGCAAGGGACAUGAGGAUCACCCAUGUAGAAGAAGAGAUCCUC [X-NG1_50] (puzzle (switch architecture): Exclusion NG 1) |  |  | 10.9 | 26.7
GGAGAUACAUGAGGAUCACCCAUGUAGGAUAUAUAGUAUAUAUAUAUUGAAAGAUAUAUAUAUAUAUAGAAGGGCGUGCACACC [#LOL-17] (puzzle (switch architecture): Small Loop Exclusion NG 3) |  |  | 6.32 | 8.77
AAAAUAAAGGCAGGAUAUACAUGAAUAUAUAAUAUAAUAUAUAAUAUAACAUGAGGAUCACCCAUGUAGAAGGGCCAAAAUAAA [LRO026_Exclusion NG 2] | 88.1 | 46.4 |  | 
AAUAUAAAGAGCUGGUCUCAAAUAACAUGAGGAUCACCCAUGUAGGAUAUCAGCACGAUAAGUGCUGAGAAGGACAUCCAGCUC [Denovo 49] | 18.9 | 15.9 |  | 
AAAUCUCGAGCCGACGGGAGAGUACAUGAGGAUCACCCAUGUGAGGAUAUCCCUGAGAAGACGGCGGAGAAGGCACUGGGUAGG [Erzaribeve] (puzzle (switch architecture): Exclusion NG 3) |  |  | 9.95 | 8.6
UUACUCAUGUAAGGAUAUGCAGCCGAAACGGCUGCAGAAGGUACUAUAAUACAUGAGGAUCACCCAUGUAAAAUAAAUAAGGUU (puzzle (switch architecture): Same State NG 1) |  |  | 19.5 | 44.1
